Data reported in patent US20260055162A1.

Tests used:
Assay in all cases: cell-based or functional assay
[1] = molecular target: AA-SR-121 (SR-121), IL10RA ECD-CD28 TM-CD3z ICD
[2] = molecular target: AA-SR-106 (SR-106), IL10RA ECD-IL10RA TM-CD3z ICD
[3] = molecular target: AA-SR-107 (SR-107), IL10RB ECD-IL10RB TM-CD3z ICD
[4] = molecular target: AA-SR-122 (SR-122), IL10RB ECD-CD28 TM-CD3z ICD
[5] = molecular target: AA-SR-111 (SR-111), PD1 ECD-PD1 TM-CD3z ICD
[6] = molecular target: AA-SR-126 (SR-126), PD1 ECD-CD28 TM-CD3z ICD
Sequence of AA-SR-126 (SR-126), PD1 ECD-CD28 TM-CD3z ICD (chain, as listed by the source limits assumed, form in doubt): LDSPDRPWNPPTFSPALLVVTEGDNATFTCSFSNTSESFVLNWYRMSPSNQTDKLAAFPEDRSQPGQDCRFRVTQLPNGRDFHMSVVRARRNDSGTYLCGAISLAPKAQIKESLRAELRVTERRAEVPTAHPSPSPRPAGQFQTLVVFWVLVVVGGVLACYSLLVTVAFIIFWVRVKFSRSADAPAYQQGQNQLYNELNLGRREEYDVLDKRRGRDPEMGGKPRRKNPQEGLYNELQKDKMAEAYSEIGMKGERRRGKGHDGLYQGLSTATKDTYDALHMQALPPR

[7] = molecular target: AA-TGFB-021 (TGFB-021), TGF-BR2 ECD-CD28 TM-CD3z ICD
Sequence of AA-TGFB-021 (TGFB-021), TGF-BR2 ECD-CD28 TM-CD3z ICD (chain, as listed by the source limits assumed, form in doubt): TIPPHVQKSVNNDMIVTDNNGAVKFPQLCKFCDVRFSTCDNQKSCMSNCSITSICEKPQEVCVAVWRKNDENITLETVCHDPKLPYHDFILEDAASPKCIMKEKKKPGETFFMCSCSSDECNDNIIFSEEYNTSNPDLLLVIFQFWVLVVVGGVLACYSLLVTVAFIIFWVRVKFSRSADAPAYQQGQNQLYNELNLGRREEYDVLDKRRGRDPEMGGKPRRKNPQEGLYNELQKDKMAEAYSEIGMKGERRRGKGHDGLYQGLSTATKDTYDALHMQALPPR

[8] = molecular target: AA-TGFB-007 (TGFB-007), TGF-BR2 ECD-TGFBR2 TM-TGFBR2 truncated ICD (Homo sapiens (Human)) (UniProt P37173)
Sequence of AA-TGFB-007 (TGFB-007), TGF-BR2 ECD-TGFBR2 TM-TGFBR2 truncated ICD (Homo sapiens (Human)) (P37173 23-199, form in doubt): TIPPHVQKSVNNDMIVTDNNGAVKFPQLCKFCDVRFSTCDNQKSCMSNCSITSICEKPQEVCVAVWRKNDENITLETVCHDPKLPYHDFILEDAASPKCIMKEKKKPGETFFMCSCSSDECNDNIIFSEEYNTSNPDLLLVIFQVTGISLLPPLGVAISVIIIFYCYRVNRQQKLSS

[9] = molecular target: AA-SR-113 (SR-113), TIGIT ECD-TIGIT TM-CD3z ICD
Sequence of AA-SR-113 (SR-113), TIGIT ECD-TIGIT TM-CD3z ICD (chain, as listed by the source limits assumed, form in doubt): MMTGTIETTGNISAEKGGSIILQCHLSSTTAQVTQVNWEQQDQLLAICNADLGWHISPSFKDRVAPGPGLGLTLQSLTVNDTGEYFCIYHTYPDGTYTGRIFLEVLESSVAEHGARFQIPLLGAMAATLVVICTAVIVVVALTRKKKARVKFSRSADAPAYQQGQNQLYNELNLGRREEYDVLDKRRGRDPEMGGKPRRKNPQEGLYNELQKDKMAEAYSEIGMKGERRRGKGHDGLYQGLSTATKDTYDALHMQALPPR

[10] = molecular target: AA-SR-128 (SR-128), TIGIT ECD-CD28 TM-CD3z ICD
Sequence of AA-SR-128 (SR-128), TIGIT ECD-CD28 TM-CD3z ICD (chain, as listed by the source limits assumed, form in doubt): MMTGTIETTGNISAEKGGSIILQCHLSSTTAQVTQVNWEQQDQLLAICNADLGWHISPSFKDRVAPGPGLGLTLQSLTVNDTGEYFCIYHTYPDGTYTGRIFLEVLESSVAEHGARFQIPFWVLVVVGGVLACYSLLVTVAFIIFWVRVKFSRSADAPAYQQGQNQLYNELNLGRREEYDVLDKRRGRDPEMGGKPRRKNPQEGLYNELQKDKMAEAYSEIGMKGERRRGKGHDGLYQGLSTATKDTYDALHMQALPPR

[11] = molecular target: AA-SR-124 (SR-124), GP130 ECD-CD28 TM-CD3z ICD
Sequence of AA-SR-124 (SR-124), GP130 ECD-CD28 TM-CD3z ICD (chain, as listed by the source limits assumed, form in doubt): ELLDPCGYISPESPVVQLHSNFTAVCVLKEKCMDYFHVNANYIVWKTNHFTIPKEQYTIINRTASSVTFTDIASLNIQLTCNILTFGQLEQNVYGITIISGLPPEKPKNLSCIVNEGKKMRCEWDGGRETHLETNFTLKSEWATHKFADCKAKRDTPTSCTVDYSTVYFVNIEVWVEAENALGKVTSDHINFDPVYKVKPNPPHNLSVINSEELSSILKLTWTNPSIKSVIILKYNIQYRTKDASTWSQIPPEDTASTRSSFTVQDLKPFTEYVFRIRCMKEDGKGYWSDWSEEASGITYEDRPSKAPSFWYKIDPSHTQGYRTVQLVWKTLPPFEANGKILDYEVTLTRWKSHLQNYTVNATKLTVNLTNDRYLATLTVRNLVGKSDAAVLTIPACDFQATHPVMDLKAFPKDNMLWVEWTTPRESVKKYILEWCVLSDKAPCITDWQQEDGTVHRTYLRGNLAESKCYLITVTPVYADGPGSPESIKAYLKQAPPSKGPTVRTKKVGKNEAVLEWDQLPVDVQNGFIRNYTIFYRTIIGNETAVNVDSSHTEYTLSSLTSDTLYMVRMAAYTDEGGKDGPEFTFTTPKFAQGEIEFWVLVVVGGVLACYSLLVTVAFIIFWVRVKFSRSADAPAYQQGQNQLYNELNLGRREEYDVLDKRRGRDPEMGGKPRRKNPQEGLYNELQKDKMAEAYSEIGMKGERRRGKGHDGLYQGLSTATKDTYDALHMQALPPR

[12] = molecular target: AA-SR-109 (SR-109), GP130 ECD-GP130 TM-CD3z ICD
Sequence of AA-SR-109 (SR-109), GP130 ECD-GP130 TM-CD3z ICD (chain, as listed by the source limits assumed, form in doubt): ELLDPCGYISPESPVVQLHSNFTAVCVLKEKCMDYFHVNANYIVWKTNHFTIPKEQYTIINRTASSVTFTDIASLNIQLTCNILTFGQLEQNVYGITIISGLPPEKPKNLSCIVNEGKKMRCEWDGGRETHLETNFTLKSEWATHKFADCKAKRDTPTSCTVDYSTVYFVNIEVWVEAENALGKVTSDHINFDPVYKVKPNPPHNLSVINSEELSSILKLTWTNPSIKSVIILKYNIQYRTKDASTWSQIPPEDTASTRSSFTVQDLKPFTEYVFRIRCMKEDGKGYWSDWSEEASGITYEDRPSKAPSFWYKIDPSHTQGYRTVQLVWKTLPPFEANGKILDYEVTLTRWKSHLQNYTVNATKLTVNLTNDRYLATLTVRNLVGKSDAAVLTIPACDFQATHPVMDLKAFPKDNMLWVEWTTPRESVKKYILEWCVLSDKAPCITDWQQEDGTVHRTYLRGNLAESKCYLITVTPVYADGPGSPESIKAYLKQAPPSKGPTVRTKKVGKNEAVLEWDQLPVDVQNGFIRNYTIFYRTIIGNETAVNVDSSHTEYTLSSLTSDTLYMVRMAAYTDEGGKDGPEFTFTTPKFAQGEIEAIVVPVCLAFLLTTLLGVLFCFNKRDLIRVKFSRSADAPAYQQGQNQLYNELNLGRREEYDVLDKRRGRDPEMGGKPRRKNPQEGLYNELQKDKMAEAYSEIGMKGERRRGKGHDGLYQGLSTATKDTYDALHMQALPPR

Sequence of AA-SR-106 (SR-106), IL10RA ECD-IL10RA TM-CD3z ICD (chain, as listed by the source limits assumed, form in doubt): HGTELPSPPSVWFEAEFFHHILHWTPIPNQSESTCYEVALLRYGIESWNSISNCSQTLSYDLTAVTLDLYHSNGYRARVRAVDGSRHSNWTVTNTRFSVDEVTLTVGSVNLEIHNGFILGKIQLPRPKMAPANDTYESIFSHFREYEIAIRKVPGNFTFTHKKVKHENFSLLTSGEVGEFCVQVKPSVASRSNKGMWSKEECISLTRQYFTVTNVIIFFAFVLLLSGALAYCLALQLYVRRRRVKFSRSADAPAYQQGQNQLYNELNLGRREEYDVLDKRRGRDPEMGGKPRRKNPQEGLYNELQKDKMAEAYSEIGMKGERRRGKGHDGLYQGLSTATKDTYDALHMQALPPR
Sequence of AA-SR-107 (SR-107), IL10RB ECD-IL10RB TM-CD3z ICD (chain, as listed by the source limits assumed, form in doubt): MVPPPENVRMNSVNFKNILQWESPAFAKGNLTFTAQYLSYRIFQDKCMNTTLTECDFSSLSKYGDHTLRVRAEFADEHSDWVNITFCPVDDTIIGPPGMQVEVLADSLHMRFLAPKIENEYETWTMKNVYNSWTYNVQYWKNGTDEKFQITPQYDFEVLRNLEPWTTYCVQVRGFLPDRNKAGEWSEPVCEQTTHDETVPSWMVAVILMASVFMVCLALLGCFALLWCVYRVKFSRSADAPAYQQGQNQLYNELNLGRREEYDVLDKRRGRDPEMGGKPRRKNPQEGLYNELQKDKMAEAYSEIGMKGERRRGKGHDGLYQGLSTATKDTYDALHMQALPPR
Sequence of AA-SR-121 (SR-121), IL10RA ECD-CD28 TM-CD3z ICD (chain, as listed by the source limits assumed, form in doubt): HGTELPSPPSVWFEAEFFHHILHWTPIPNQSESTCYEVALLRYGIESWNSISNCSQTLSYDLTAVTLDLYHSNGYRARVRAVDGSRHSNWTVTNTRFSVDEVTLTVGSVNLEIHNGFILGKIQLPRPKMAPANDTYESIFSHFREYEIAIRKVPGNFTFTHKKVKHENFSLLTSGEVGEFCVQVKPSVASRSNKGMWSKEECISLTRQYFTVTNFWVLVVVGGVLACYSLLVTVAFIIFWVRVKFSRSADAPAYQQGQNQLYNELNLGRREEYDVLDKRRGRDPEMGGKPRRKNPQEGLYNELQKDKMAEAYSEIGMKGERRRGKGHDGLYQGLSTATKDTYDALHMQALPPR
Sequence of AA-SR-122 (SR-122), IL10RB ECD-CD28 TM-CD3z ICD (chain, as listed by the source limits assumed, form in doubt): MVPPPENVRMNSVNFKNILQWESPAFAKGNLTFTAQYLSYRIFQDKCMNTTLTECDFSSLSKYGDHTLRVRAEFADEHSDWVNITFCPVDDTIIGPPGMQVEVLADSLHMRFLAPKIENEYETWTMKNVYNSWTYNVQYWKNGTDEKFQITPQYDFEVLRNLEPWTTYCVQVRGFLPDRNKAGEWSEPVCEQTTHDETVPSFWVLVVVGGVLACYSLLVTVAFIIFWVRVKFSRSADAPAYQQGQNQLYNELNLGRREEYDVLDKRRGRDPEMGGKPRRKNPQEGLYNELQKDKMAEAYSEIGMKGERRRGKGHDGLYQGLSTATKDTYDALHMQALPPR
Sequence of AA-SR-111 (SR-111), PD1 ECD-PD1 TM-CD3z ICD (chain, as listed by the source limits assumed, form in doubt): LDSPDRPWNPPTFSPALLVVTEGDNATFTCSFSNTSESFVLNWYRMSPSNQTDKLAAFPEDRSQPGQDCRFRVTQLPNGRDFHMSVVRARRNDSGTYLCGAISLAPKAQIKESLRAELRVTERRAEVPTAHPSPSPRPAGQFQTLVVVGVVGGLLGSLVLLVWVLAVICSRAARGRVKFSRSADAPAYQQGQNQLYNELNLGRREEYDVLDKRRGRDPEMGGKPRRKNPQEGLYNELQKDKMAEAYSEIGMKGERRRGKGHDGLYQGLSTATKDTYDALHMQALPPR

anti-IL-10RA mAb clone 37607 (antibody) was tested, and the CD69, fold-change of MFI over no stimulation, High (10 ug/mL) [1] was 14.3 fold, the CD69, fold-change of MFI over no stimulation, Low (0.4 ug/mL) [1] was 2.2 fold and the CD69, fold-change of MFI over no stimulation, Med. (2 ug/mL) [1] was 7.9 fold. It also gave a GFP, fold-change of MFI over no stimulation, High (10 ug/mL) [1] of 5.4 fold, a GFP, fold-change of MFI over no stimulation, Low (0.4 ug/mL) [1] of 1.1 fold and a GFP, fold-change of MFI over no stimulation, Med. (2 ug/mL) [1] of 2.9 fold. It also gave a CD69, fold-change of MFI over no stimulation, High (10 ug/mL) [2] of 56.8 fold, a CD69, fold-change of MFI over no stimulation, Low (0.4 ug/mL) [2] of 4.9 fold and a CD69, fold-change of MFI over no stimulation, Med. (2 ug/mL) [2] of 29.5 fold. It also gave a GFP, fold-change of MFI over no stimulation, High (10 ug/mL) [2] of 11.4 fold, a GFP, fold-change of MFI over no stimulation, Low (0.4 ug/mL) [2] of 0.8 fold and a GFP, fold-change of MFI over no stimulation, Med. (2 ug/mL) [2] of 3.3 fold.

With anti-IL-10RB mAb clone 90220 (antibody) the CD69, fold-change of MFI over no stimulation, High (10 ug/mL) [3] was 108 fold, the CD69, fold-change of MFI over no stimulation, Low (0.4 ug/mL) [3] was 32.2 fold and the CD69, fold-change of MFI over no stimulation, Med. (2 ug/mL) [3] was 86.1 fold. The GFP, fold-change of MFI over no stimulation, High (10 ug/mL) [3] was 13.8 fold, the GFP, fold-change of MFI over no stimulation, Low (0.4 ug/mL) [3] was 2.9 fold and the GFP, fold-change of MFI over no stimulation, Med. (2 ug/mL) [3] was 9.3 fold. For the same substance, the CD69, fold-change of MFI over no stimulation, High (10 ug/mL) [4] was 115 fold, the CD69, fold-change of MFI over no stimulation, Low (0.4 ug/mL) [4] was 70.1 fold and the CD69, fold-change of MFI over no stimulation, Med. (2 ug/mL) [4] was 118 fold. The GFP, fold-change of MFI over no stimulation, High (10 ug/mL) [4] was 8.2 fold, the GFP, fold-change of MFI over no stimulation, Low (0.4 ug/mL) [4] was 6.2 fold and the GFP, fold-change of MFI over no stimulation, Med. (2 ug/mL) [4] was 12.5 fold.

With anti-PD-1 mAb clone EH12.2H7 (antibody) the CD69, fold-change of MFI over no stimulation, High (10 ug/mL) [5] was 37.6 fold, the CD69, fold-change of MFI over no stimulation, Low (0.4 ug/mL) [5] was 1.2 fold and the CD69, fold-change of MFI over no stimulation, Med. (2 ug/mL) [5] was 1.9 fold. It also gave a GFP, fold-change of MFI over no stimulation, High (10 ug/mL) [5] of 5.8 fold, a GFP, fold-change of MFI over no stimulation, Low (0.4 ug/mL) [5] of 1.3 fold and a GFP, fold-change of MFI over no stimulation, Med. (2 ug/mL) [5] of 1.4 fold. For the same substance, the CD69, fold-change of MFI over no stimulation, High (10 ug/mL) [6] was 27.3 fold, the CD69, fold-change of MFI over no stimulation, Low (0.4 ug/mL) [6] was 1.1 fold and the CD69, fold-change of MFI over no stimulation, Med. (2 ug/mL) [6] was 1.7 fold. For the same substance, the GFP, fold-change of MFI over no stimulation, High (10 ug/mL) [6] was 5.5 fold, the GFP, fold-change of MFI over no stimulation, Low (0.4 ug/mL) [6] was 0.9 fold and the GFP, fold-change of MFI over no stimulation, Med. (2 ug/mL) [6] was 1.2 fold.

“anti-TGF-BR2 mAb clone W17055E (antibody)” gave a CD69, fold-change of MFI over no stimulation, High (10 ug/mL) [7] of 88.2 fold, a CD69, fold-change of MFI over no stimulation, Low (0.4 ug/mL) [7] of 2.2 fold and a CD69, fold-change of MFI over no stimulation, Med. (2 ug/mL) [7] of 25.2 fold. For the same substance, the GFP, fold-change of MFI over no stimulation, High (10 ug/mL) [7] was 5 fold, the GFP, fold-change of MFI over no stimulation, Low (0.4 ug/mL) [7] was 0.9 fold and the GFP, fold-change of MFI over no stimulation, Med. (2 ug/mL) [7] was 2.9 fold. It also gave a CD69, fold-change of MFI over no stimulation, High (10 ug/mL) [8] of 2 fold, a CD69, fold-change of MFI over no stimulation, Low (0.4 ug/mL) [8] of 1.3 fold and a CD69, fold-change of MFI over no stimulation, Med. (2 ug/mL) [8] of 1.5 fold. It also gave a GFP, fold-change of MFI over no stimulation, High (10 ug/mL) [8] of 1 fold, a GFP, fold-change of MFI over no stimulation, Low (0.4 ug/mL) [8] of 0.8 fold and a GFP, fold-change of MFI over no stimulation, Med. (2 ug/mL) [8] of 0.9 fold.

Work on anti-TIGIT mAb clone A15153G (antibody) yielded a CD69, fold-change of MFI over no stimulation, High (10 ug/mL) [9] of 17.1 fold, a CD69, fold-change of MFI over no stimulation, Low (0.4 ug/mL) [9] of 7.2 fold and a CD69, fold-change of MFI over no stimulation, Med. (2 ug/mL) [9] of 17.1 fold. The GFP, fold-change of MFI over no stimulation, High (10 ug/mL) [9] was 4.6 fold, the GFP, fold-change of MFI over no stimulation, Low (0.4 ug/mL) [9] was 0.9 fold and the GFP, fold-change of MFI over no stimulation, Med. (2 ug/mL) [9] was 2.2 fold. It also gave a CD69, fold-change of MFI over no stimulation, High (10 ug/mL) [10] of 3.4 fold, a CD69, fold-change of MFI over no stimulation, Low (0.4 ug/mL) [10] of 1.2 fold and a CD69, fold-change of MFI over no stimulation, Med. (2 ug/mL) [10] of 2.6 fold. The GFP, fold-change of MFI over no stimulation, High (10 ug/mL) [10] was 1.7 fold, the GFP, fold-change of MFI over no stimulation, Low (0.4 ug/mL) [10] was 0.6 fold and the GFP, fold-change of MFI over no stimulation, Med. (2 ug/mL) [10] was 1.2 fold.

Substance anti-gp130 mAb clone 28126 (antibody) has a CD69, fold-change of MFI over no stimulation, High (10 ug/mL) [11] of 64.1 fold, a CD69, fold-change of MFI over no stimulation, Low (0.4 ug/mL) [11] of 1.8 fold and a CD69, fold-change of MFI over no stimulation, Med. (2 ug/mL) [11] of 40.7 fold. It also gave a GFP, fold-change of MFI over no stimulation, High (10 ug/mL) [11] of 3 fold, a GFP, fold-change of MFI over no stimulation, Low (0.4 ug/mL) [11] of 0.5 fold and a GFP, fold-change of MFI over no stimulation, Med. (2 ug/mL) [11] of 3.9 fold. For the same substance, the CD69, fold-change of MFI over no stimulation, High (10 ug/mL) [12] was 123 fold, the CD69, fold-change of MFI over no stimulation, Low (0.4 ug/mL) [12] was 1.1 fold and the CD69, fold-change of MFI over no stimulation, Med. (2 ug/mL) [12] was 22 fold. The GFP, fold-change of MFI over no stimulation, High (10 ug/mL) [12] was 6.3 fold, the GFP, fold-change of MFI over no stimulation, Low (0.4 ug/mL) [12] was 0.5 fold and the GFP, fold-change of MFI over no stimulation, Med. (2 ug/mL) [12] was 2.6 fold.
